Experimental data taken from article PMC12985673.

Molecular target: NRXβ1 ECD (amino acids 81 to 311), His-tagged, labelled with Alexa Fluor 488, P0DI97
Assay: fluorescence polarisation
Conditions: chain shown with the change; Hill equation fit, shared slope n = 1.05 ± 0.05; NL2 concentration 0-8 µM; parent: 6.2 ± 0.4 µM

NRXβ1 ECD (amino acids 81 to 311), His-tagged, labelled with Alexa Fluor 488, P0DI97, sequence (P0DI97 other isoform, or with tags, fused parts or gaps): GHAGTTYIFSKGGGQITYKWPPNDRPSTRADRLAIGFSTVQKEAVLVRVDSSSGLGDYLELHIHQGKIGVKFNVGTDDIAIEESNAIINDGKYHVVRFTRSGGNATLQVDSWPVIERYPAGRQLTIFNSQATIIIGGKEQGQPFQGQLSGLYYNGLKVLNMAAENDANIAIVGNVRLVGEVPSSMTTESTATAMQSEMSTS

Kd: 320 nM
B1: full-length neuroligin 2 (NL2), mouse, without the splice insert at site A, Q69ZK9 H279Y; G282K (protein)
chain: MWLLALCLVGLAGAQRGGGGPGGGAPGGPGLGLGSLGEERFPVVNTAYGRVRGVRRELNNEILGPVVQFLGVPYATPPLGARRFQPPEAPASWPGVRNATTLPPACPQNLHGALPAIMLPVWFTDNLEAAATYVQNQSEDCLYLNLYVPTEDGPLTKKRDEATLNPPDTDIRDSGKKPVMLFLHGGSYMEGTGNMFDGSVLAAYGNVIVVTLNYRLGVLGFLSTGDQAAKGNYGLLDQIQALRWLSENIAHFGGDPERITIFGSGAGASCVNLLILSHYSEKLFQKAIAQSGTAISSWSVNYQPLKYTRLLAAKVGCDREDSTEAVECLRRKSSRELVDQDVQPARYHIAFGPVVDGDVVPDDPEILMQQGEFLNYDMLIGVNQGEGLKFVEDSAESEDGVSASAFDFTVSNFVDNLYGYPEGKDVLRETIKFMYTDWADRDNGEMRRKTLLALFTDHQWVAPAVATAKLHADYQSPVYFYTFYHHCQAEGRPEWADAAHGDELPYVFGVPMVGATDLFPCNFSKNDVMLSAVVMTYWTNFAKTGDPNQPVPQDTKFIHTKPNRFEEVVWSKFNSKEKQYLHIGLKPRVRDNYRANKVAFWLELVPHLHNLHTELFTTTTRLPPYATRWPPRTPGPGTSGTRRPPPPATLPPESDIDLGPRAYDRFPGDSRDYSTELSVTVAVGASLLFLNILAFAALYYKRDRRQELRCRRLSPPGGSGSGVPGGGPLLPTAGRELPPEEELVSLQLKRGGGVGADPAEALRPACPPDYTLALRRAPDDVPLLAPGALTLLPSGLGPPPPPPPPSLHPFGPFPPPPPTATSHNNTLPHPHSTTRV
